Data as given in patent publication US20080206268A1.
Blank lines part the entries; values can stand above or below the binder they belong to.

How the values were obtained:
[1] = target: HLA-B60 on HLA typed EBV-LCLs (human); experiment: cell-based competition assay, flow cytometry
[2] = target: HLA-B60 on HLA typed EBV-LCLs (human); experiment: cell-based competition on acid-treated EBV-LCLs against 150 nM fluorescent reference peptide, flow cytometry
[3] = target: HLA-B60 on HLA typed EBV-LCLs (human); experiment: as above; remark: listed apart in the source
[4] = target: HLA-B60 on HLA typed EBV-LCLs (human); experiment: cell-based competition assay, flow cytometry; remark: listed apart in the source
[5] = target: HLA-A3 on HLA typed EBV-LCLs (human); experiment: cell-based competition on acid-treated EBV-LCLs against 150 nM fluorescent reference peptide, flow cytometry
[6] = target: recombinant HLA-A2.1 protein and b2-microglobulin (human); experiment: cell-free competition assay on recombinant HLA-A2.1, against HA-1^H peptide [..] as reference; settings: remark: other sources report otherwise
[7] = target: HLA-A2 on HLA typed EBV-LCLs (human); experiment: cell-based competition on acid-treated EBV-LCLs against 150 nM fluorescent reference peptide, flow cytometry; settings: remark: other sources report otherwise

Binder: KESTLHLVL [HLA-B60 binder-positive control peptide …]
- IC50 [3]: 1.1 µM

Binder: VLRDDLLEA [HA-1^R peptide …]
- fold lower binding affinity than the HA-1^H peptide [6]: 10 fold

Binder: VLHDDLLEA [HA-1^H peptide …]
- IC50 [7]: 6.4 µM

Now from value to binder:

- IC50 [1]: 1.6 to 5.3 µM
- IC50 [2]: 5.3 µM
Binder: KECVLHDDL (modifications not checked) [nonameric HA-1^H peptide …]

- IC50 [3]: 1 µM
Binder: KECVLHDDLL

- IC50 [4]: 1.6 to 5.3 µM
- IC50 [3]: 1.6 µM
Binder: KECVLRDDLL [decameric HA-1^R peptide …]

- IC50 [5]: 15.6 µM
Binder: VLHDDLLEAR (modifications not checked)
